For one experiment, the target named is T1, Hen Egg Lysozyme (hen, UniProt P00698 19-147).
T1 construct: also called HEL
The experiment is described as follows: inhibition ELISA, binding competed with free antigen. Background: An ELISA detects its analyte on a solid surface through an enzyme-linked reagent.

Experiment [1] has as its target T2, recombinant C fragment of tetanus neurotoxin (Clostridium tetani, UniProt P04958 865-1315).
T2 construct: domain: C fragment
T2 sequence: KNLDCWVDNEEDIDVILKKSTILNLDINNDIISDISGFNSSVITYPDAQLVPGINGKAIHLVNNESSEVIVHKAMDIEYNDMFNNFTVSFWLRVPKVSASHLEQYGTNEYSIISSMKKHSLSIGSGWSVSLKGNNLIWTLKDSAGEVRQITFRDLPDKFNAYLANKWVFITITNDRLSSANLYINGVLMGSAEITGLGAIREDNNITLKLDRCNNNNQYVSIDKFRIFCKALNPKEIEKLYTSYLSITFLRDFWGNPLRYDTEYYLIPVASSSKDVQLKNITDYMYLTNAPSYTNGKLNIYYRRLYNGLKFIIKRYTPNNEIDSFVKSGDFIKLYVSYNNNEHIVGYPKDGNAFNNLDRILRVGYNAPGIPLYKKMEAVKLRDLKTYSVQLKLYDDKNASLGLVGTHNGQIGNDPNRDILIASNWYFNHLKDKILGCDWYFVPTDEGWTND
Description: ELISA, bacterial extract.

The target of the next experiment is T3, Protein A (UniProt P38507 37-477).
T3 construct: also called Protein A-SEPHAROSE
The experiment is described as follows: Protein A-Sepharose chromatography.

B1: camel VHH α-LYS2 (anti-lysozyme) (VHH)
VHH: EVQLQASGGGSVQAGQSLRLSCATSGATSSSNCMGWFRQAPGKEREGVAVIDTGRGNTAYADSVQGRLTISLDNAKNTLYLQMNSLKPEDTAMYYCAADTSTWYRGYCGTNPNYFSYWGQGTQVTVSS
notes: also called LYS2 VHH; pHEN4-αLYS2
One may read the Ki as a dissociation constant, usually derived from enzyme kinetics or from competition with a known ligand. Read a high Ki as lower affinity. In the experiment with Hen Egg Lysozyme, B1 displayed a Ki of approximately 50 nM.

B2: camel VHH αTT2 (anti-tetanus toxoid) (VHH)
VHH: EVQLQASGGGSVQAGGSLRLSCTAANYAFDSKTVGWFRQVPGKEREGVAGISSGGSTTAYSDSVKGRYTVSLENAKNTVYLLIDNLQPEDTAIYYCAGVSGWRGRQWLLLAETYRFWGQGTQVTVSS
In the case of B2, the binding result in experiment [1] is given as “no binding”.

B3: camel VHH α-LYS3 (anti-lysozyme) (VHH)
VHH: DVQLQASGGGSVQAGGSLRLSCAASGYTIGPYCMGWFRQAPGKEREGVAAINMGGGITYYADSVKGRFTISQDNAKNTVYLLMNSLEPEDTAIYYCAADSTIYASYYECGHGLSTGGYGYDSWGQGTQVTVSS
notes: also called LYS3 VHH; pHEN4-αLYS3
As for B3, the binding result with Protein A is given as “no binding”. The Ki with Hen Egg Lysozyme is approximately 500 nM.
